Key:
Test in all cases: Kinase Profiling Assay
Type in all cases: biochemical
Settings in all cases: 100 μM
[1] = target: SAPK2a(T106M) (h) (Homo sapiens, UniProt Q16539, T106M)
Method in brief: (§1)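 Specificity of MK2 inhibitory peptides is assessed against a panel of 266 human kinases. Kinase transfers a radiolabeled phosphate from ATP onto a positively charged substrate, which is trapped on a negatively charged filter and quantified by scintillation counting against full-activity control; duplicate determinations.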

[2] = target: T1, TSSK1 (h) (Homo sapiens, UniProt Q9BXA7)
T1 sequence (Q9BXA7 1-367): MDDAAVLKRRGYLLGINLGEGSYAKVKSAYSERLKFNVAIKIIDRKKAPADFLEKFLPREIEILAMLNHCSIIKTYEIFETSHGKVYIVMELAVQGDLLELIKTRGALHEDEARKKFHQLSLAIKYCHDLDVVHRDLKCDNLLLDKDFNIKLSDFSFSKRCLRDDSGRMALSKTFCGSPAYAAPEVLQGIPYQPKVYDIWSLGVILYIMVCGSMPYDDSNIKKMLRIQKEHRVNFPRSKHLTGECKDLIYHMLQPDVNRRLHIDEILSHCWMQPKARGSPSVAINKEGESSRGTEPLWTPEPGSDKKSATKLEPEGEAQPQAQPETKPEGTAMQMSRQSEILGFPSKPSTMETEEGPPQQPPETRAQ
Method in brief: as §1

[3] = target: T2, ZAP-70 (h) (Homo sapiens, UniProt P43403)
T2 sequence (P43403 1-619): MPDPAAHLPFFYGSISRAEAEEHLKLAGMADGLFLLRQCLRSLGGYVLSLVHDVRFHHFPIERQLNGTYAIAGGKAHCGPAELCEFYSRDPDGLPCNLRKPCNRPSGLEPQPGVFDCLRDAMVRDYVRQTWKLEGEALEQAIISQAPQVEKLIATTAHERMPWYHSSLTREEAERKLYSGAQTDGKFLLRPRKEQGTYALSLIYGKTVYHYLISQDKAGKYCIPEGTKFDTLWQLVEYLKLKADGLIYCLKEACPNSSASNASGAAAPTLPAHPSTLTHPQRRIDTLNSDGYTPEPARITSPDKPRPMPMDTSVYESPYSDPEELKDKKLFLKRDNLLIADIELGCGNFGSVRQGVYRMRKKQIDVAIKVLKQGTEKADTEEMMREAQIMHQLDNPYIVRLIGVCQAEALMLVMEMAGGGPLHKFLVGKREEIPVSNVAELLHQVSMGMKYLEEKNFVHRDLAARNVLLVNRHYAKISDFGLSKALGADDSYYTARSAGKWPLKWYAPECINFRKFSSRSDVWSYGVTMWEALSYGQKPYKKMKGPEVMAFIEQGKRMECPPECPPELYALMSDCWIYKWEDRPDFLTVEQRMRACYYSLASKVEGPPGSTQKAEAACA
Method in brief: as §1

[4] = target: T3, Pim-1 (h) (Homo sapiens, UniProt P11309)
T3 construct: purchased Millipore
T3 sequence (P11309 whole entry): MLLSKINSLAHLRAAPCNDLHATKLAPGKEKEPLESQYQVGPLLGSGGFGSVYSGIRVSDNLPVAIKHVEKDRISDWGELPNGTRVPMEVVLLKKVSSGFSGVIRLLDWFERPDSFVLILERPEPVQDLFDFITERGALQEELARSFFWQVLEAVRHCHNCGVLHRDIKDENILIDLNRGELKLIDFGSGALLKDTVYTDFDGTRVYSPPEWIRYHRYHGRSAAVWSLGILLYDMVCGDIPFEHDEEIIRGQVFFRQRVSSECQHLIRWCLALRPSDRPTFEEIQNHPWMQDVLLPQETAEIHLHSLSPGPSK
Method in brief: as §1

[5] = target: Met (h) (Homo sapiens, UniProt P08581)
Chain of Met (h) (P08581 25-1390): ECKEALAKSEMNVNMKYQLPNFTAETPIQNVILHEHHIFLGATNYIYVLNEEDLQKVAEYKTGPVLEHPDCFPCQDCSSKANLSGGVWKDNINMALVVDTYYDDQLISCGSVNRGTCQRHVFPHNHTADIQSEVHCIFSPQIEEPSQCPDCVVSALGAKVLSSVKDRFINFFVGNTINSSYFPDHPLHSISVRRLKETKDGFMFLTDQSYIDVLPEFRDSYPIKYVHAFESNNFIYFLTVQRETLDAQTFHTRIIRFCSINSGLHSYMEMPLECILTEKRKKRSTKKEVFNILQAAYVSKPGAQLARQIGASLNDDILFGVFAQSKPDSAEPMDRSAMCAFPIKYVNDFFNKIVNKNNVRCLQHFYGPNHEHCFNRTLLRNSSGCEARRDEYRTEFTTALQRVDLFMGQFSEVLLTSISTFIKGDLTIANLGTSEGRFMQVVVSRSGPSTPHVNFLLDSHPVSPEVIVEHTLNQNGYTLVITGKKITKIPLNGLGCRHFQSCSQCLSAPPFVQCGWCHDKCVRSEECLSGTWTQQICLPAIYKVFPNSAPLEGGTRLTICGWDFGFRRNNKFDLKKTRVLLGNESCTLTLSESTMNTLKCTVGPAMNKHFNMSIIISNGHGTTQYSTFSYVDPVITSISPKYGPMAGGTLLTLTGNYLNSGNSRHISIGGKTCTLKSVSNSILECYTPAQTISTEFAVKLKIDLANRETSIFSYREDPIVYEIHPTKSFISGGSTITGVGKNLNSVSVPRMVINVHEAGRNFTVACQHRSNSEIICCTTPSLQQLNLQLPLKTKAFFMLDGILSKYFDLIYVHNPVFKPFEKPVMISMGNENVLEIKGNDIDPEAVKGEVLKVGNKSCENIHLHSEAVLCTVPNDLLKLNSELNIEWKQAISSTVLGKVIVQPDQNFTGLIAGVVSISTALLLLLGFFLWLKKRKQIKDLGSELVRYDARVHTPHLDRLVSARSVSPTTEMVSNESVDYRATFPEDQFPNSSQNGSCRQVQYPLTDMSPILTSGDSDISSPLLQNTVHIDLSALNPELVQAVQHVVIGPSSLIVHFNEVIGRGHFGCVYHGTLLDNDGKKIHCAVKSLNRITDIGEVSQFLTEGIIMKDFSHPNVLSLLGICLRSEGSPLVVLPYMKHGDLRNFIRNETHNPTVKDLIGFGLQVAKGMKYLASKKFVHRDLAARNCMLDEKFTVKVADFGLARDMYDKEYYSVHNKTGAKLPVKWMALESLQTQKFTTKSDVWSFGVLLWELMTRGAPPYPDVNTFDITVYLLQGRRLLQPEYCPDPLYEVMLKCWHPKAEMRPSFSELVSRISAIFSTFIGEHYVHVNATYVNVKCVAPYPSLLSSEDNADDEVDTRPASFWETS
Method in brief: as §1

[6] = target: T4, SAPK3 (h) (Homo sapiens, UniProt P53778)
T4 sequence (P53778 1-367): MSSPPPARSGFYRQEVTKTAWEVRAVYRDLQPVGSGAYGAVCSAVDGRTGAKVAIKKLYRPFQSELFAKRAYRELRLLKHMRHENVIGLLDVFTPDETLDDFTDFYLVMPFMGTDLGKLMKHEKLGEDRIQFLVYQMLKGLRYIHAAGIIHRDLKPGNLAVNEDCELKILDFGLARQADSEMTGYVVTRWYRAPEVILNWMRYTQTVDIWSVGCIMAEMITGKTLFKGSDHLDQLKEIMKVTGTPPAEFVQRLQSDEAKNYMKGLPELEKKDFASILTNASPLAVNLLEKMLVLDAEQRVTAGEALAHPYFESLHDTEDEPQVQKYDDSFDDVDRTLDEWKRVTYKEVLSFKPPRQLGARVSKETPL
Method in brief: as §1

[7] = target: Syk (h) (Homo sapiens, UniProt P43405)
Method in brief: as §1

[8] = target: KDR (h) (Homo sapiens, UniProt P35968)
Method in brief: as §1

[9] = target: Tie2 (h) (Homo sapiens, UniProt Q02763)
Chain of Tie2 (h) (Q02763 23-1124): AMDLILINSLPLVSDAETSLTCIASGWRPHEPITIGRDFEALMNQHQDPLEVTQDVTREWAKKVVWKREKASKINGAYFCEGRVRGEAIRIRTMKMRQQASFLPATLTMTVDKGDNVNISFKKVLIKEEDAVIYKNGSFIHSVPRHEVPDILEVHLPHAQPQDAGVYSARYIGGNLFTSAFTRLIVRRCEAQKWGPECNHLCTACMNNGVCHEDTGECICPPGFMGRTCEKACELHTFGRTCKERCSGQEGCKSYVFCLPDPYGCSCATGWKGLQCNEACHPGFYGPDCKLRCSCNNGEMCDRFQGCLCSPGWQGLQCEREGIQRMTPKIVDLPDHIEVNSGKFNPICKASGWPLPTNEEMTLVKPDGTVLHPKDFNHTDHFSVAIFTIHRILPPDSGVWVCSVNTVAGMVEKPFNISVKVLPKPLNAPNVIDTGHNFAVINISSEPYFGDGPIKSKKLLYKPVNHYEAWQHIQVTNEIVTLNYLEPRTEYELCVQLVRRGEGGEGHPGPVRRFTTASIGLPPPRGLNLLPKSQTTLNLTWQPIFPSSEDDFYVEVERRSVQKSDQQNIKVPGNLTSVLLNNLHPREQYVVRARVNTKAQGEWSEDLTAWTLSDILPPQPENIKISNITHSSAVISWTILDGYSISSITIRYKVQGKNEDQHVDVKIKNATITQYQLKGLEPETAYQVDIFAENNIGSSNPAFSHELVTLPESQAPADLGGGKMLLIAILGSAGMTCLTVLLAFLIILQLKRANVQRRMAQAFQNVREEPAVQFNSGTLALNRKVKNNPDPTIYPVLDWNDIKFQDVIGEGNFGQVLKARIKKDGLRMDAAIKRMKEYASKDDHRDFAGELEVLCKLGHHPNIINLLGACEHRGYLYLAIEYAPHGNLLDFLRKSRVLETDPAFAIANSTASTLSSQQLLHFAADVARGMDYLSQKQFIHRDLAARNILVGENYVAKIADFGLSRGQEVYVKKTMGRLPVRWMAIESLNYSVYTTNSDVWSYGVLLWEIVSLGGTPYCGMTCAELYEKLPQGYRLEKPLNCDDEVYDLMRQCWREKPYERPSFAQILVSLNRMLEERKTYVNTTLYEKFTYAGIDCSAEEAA
Method in brief: as §1

[10] = target: T5, eEF-2K (h) (Homo sapiens, UniProt O00418)
T5 construct: purchased Millipore
Method in brief: as §1

[11] = target: TLK2 (h) (Homo sapiens, UniProt Q86UE8)
Chain of TLK2 (h) (Q86UE8 whole entry): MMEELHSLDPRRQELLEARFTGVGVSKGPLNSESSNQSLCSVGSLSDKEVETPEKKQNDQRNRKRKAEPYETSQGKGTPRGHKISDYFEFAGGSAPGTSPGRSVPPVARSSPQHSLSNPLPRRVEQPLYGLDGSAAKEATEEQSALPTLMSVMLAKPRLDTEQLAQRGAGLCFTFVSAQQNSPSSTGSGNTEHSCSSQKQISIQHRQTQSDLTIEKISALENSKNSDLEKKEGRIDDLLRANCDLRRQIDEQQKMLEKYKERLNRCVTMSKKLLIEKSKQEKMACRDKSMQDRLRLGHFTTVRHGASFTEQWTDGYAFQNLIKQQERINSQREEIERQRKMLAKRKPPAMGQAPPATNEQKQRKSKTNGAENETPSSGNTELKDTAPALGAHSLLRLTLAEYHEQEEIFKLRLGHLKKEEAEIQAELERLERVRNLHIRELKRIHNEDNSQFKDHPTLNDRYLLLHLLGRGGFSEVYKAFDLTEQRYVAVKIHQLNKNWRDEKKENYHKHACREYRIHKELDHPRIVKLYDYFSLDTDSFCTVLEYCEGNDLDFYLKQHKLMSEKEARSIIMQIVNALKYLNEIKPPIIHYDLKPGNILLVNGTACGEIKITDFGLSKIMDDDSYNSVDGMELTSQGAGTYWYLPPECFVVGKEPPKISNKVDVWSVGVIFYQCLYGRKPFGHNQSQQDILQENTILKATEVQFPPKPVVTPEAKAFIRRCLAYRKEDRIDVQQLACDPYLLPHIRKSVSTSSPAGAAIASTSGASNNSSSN
Method in brief: as §1

Chain of SAPK2a(T106M) (h) (Q16539 whole entry T106M): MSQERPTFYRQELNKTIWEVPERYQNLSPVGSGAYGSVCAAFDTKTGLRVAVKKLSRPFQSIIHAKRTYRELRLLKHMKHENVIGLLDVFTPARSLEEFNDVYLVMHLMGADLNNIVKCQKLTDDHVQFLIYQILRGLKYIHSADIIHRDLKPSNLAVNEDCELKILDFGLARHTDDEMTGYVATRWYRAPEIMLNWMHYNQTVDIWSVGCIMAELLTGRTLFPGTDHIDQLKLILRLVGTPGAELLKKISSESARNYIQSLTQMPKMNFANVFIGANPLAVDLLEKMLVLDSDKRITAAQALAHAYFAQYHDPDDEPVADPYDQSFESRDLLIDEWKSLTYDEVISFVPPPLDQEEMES

| Sequence | % activity [1] | % activity [2] | % activity [3] | % activity [4] | % activity [5] | % activity [6] | % activity [7] | % activity [8] | % activity [9] | % activity [10] | % activity [11] |
| --- | --- | --- | --- | --- | --- | --- | --- | --- | --- | --- | --- |
| FAKLAARLYRKALARQLGVAA [MMI-0300] | 97% | 79% | 75% | 8% | 65% | 84% | 24% | 101% | 26% | 91% | – |
| HRRIKAWLKKIKALARQLGVAA (Mammalian) [MMI-0500] | 32% | 46% | 1% | 0% | 27% | 24% | 5% | 15% | 22% | 43% | 133% |
| KAFAKLAARLYRKALARQLGVAA [MMI-0400] | 99% | 79% | 33% | 7% | 62% | 79% | 9% | 94% | 21% | 43% | 151% |
| YARAAARQARAKALNRQLGVA (Mammalian) [MMI-0200] | 100% | 98% | 58% | 18% | 71% | 97% | 36% | 110% | 53% | – | 129% |

Reference: patent US10500249B2, “Compositions and methods for preventing or treating diseases, conditions, or processes characterized by aberrant fibroblast proliferation and extracellular matrix deposition” (MOERAE MATRIX, INC., priority 2014, dated 2019)
